Measured values as given in patent publication US20060110730A1, “Methods and compositions for regulation and manipulation of steroidogenesis” (priority 2002, published 2006).

Tests used:
COS-1 cells = test: Pregnenolone production of COS-1 cells co-transfected with F2 (cholesterol side-chain cleavage fusion) and StAR constructs; type: cell-based, monkey; settings: for increase in steroidogenesis over the StAR-independent level seen with F2 alone: accumulated pregnenolone after 48 h; for steroidogenic activity (in words): pregnenolone in medium
Protocol: COS-1 cells were grown, transfected and assayed for pregnenolone production as Described (Stocco, D. M. & Clark, B. J. Regulation of the acute production of steroids in steroidogenic cells. Endocr. Rev. 17, 221-244 (1996)), (Bose, H. S., et al. N-218 MLN64, a protein with StAR-like steroidogenic activity is folded and cleaved similarly to StAR. Biochemistry 39, 11722-11731 (2000)). Three independent transfections, each performed in triplicate, were done for each construct.
To determine the location of biological activity of the mitochondrial protein StAR, wild-type and StAR proteins with an N-terminal deletion and StAR proteins fused to a protein that would function to immobilize the StAR protein in one of the four mitochondrial compartments were evaluated for their ability to catalyze steroidogenesis. Nonsteroidogenic COS-I monkey kidney cells were grown, transfected and assayed for pregnenolone production as described (Stocco, D. M. and Clark, B. J., Endocr Rev 17, 221-244 (1996); Bose, H. S., et al., Biochemistry 39, 11722-11731 (2000)). Three independent transfections, each performed in triplicate, were done for each construct. The cells were transfected with a vector expressing full length StAR or a vector expressing N-62 StAR, Tom-StAR, StAR-Tom, Tim44-StAR, or Tim9-StAR. Tom20, Tim9 and Tim44 cDNAs were prepared from human adrenal RNA by RT-PCR. N-62 StAR cDNA including an enterokinase linker fused to 63-285 StAR was derived from a bacterial expression vector (see Artemenko, et al., J. Biol. Chem. 276: 46583-46596 (2001). Tom/StAR is Tom20 fused to 63-285 through GSDDDDK, which contains Bam HI and enterokinase sites (Bam/EK linker). StAR/Tom is 1-285 StAR fused to Tom20 through Eco RI/EK linker (GFDDDDK). Tim9/StAR contains the 25 amino acid mitochondrial leader of cytochrome c oxidase subunit IV (Bose et al, Biochemistry, 37: 9768-9775 (1998)) fused to Tim9 linked to N-30 StAR through the Bam/EK linker. Tim44/StAR is Tim44 fused to 63-285 StAR through the Bam/EK linker. Tom20 has 50 amino-terminal residues embedded in the OMM and 95 residues in the cytoplasm (Abe, Y., et al., Cell 100, 551-560 (2000)). Expression of Tom20 with N-62 StAR fused to its carboxy-terminus (Tom/StAR) affixed StAR to the cytoplasmic side of the OMM. Expression of Tim9, which is normally confined to the IMS (Bauer et al, J. Inher. Metab. Dis. 24: 166-180 (2001)), fused to N-30 StAR (Tim9/StAR) localized StAR to the IMS. Expression of Tim44, which lies on the matrix side of the IMM, fused to N-62 StAR (Tim44/StAR), targeted StAR to the matrix. […]

MA-10 cell mitochondria = test: Mitochondrial import and cleavage kinetics of StAR constructs; type: biochemical, mouse; settings: 26° C., phosphorimager quantitation of uncleaved and cleaved imported protein
Excerpt: StAR constructs were cloned into the BglII/EcoRI site of pSP6, transcribed with SP6 RNA polymerase (Promega) and translated with [35S]methionine as described (Chuck, S. & Lingappa, V. Apolipoprotein B intermediates. Nature 356, 115-116 (1992)). Mitochondria, isolated from 5 £ 106 MA-10 or COS-1 cells by hypotonic shock and homogenization (Bose, H. S., et al. N-218 MLN64, a protein with StAR-like steroidogenic activity is folded and cleaved similarly to StAR. Biochemistry 39, 11722-11731 (2000)) were suspended in […] of 125 mM sucrose, 1 mM ATP, 1 mM NADH, 50 mM KCl, 0.05 mM ADP, 2 mM DTT, 5 mM Na-succinate, 2 mM Mg(OAc)2, 2 mM KH2PO4 and 10 mM HEPES buffer at pH 7.4. Mitochondria (50 ml) and 1 ml of the transcription/translationmix were incubated at 268 C. for various times; import was terminated with 1 ml 1 mM mCCCP (Calbiochem). Some mitochondria were extracted with fresh 100 mM Na2CO3, pH 11.5, for 15 min at 48 C. and spun at 15,000 g for 15 min at 48 C. to pellet membranes. Some membranes were incubated with 0.1% digitonin (Sigma) for 15 min at 48 C. and spun at 144,000 g for 1 h at 48 C. to pelletOMMfragments. […] Analysis was by SDS-polyacrylamide gel electrophoresis (SDS-PAGE) and phosphorimager quantification (Molecular Dynamics, Storm 860). […]

MA-10 mitochondria = test: Steroidogenic activity (pregnenolone) of isolated MA-10 mitochondria incubated with StAR constructs from cell-free transcription/translation; type: biochemical, mouse
Protocol: (§1) StAR constructs were bioassayed (Bose, H. S., et al. N-218 MLN64, a protein with StAR-like steroidogenic activity is folded and cleaved similarly to StAR. Biochemistry 39, 11722-11731 (2000)) with MA-10 mitochondria. Linked transcription/translation system was added directly to the mitochondria except when Tim9/StAR was immunoprecipitated with anti-StAR antiserum (Bose, H. S., et al. The active form of the steroidogenic acute regulatory protein, StAR, appears to be a molten globule. Proc. Natl Acad. Sci. USA 96, 7250-7255 (1999)), collected with protein A-sepharose CL-4B (Pharmacia), washed, dissociated from the sepharose-antibody complex at pH 3.0, neutralized and added directly to mitochondria. Immunoassays of pregnenolone were performed after incubation at 378 C. for 1 h; immunoblotting was performed as described (Bose, H. S., et al. N-218 MLN64, a protein with StAR-like steroidogenic activity is folded and cleaved similarly to StAR. Biochemistry 39, 11722-11731 (2000)).
as §1, with “al.,” for “al. N-218 MLN64, a protein with StAR-like steroidogenic activity is folded and cleaved similarly to StAR.”, “al., Proc” for “al. The active form of the steroidogenic acute regulatory protein, StAR, appears to be a molten globule. Proc.”, “Acad Sci” for “Acad. Sci.”, “harvested” for “collected”, “37°” for “378 C.”

CC(C)CC[C@@H](O)[C@@H](C)[C@H]1CC[C@H]2[C@@H]3CC=C4C[C@@H](O)CC[C@]4(C)[C@H]3CC[C@]12C [22R-OH-cholesterol, 22R-hydroxycholesterol, reference compound]
increase in steroidogenesis over the StAR-independent level seen with F2 alone (COS-1 cells): ~20 fold

B1: full-length StAR: full-length (1-285) steroidogenic acute regulatory protein (protein, UniProt P49675 1-285, looked up)
chain: MLLATFKLCAGSSYRHMRNMKGLRQQAVMAISQELNRRALGGPTPSTWINQVRRRSSLLGSRLEETLYSDQELAYLQQGEEAMQKALGILSNQEGWKKESQQDNGDKVMSKVVPDVGKVFRLEVVVDQPMERLYEELVERMEAMGEWNPNVKEIKVLQKIGKDTFITHELAAEAAGNLVGPRDFVSVRCAKRRGSTCVLAGMATDFGNMPEQKGVIRAEHGPTCMVLHPLAGSPSKTKLTWLLSIDLKGWLPKSIINQVLSQTQVDFANHLRKRLESHPASEARC
modifications: full-length
notes: full-length (1-285) steroidogenic acute regulatory protein
import speed (ranking) (MA-10 cell mitochondria): Scc/N-62 StAR>>Scc/N-30 StAR>full-length StAR
increase in steroidogenesis over the StAR-independent level seen with F2 alone (COS-1 cells): 6 fold
steroidogenic activity (in words) (COS-1 cells): equivalent at all times measured after transfection
steroidogenic activity (in words) (COS-1 cells; listed as full-length (1-285) StAR): about half the maximal capacity of the cells
increase in steroidogenesis (MA-10 mitochondria; MA-10 mitochondria incubated with cell-free transcription/translation system expressing the construct, versus control system): ~6 fold
activity of MA-10 cell mitochondria (in words) (MA-10 mitochondria; equal amounts of each protein added, 1 h): equally active
steroidogenic activity of reconstituted mitochondria (in words) (MA-10 mitochondria; mitochondria reconstituted from OMM and mitoplast fractions): active
